# B1: TPR t1 (parent)
# chain: GACCAAUCUGCCCUCAGAGCUCGAGAACAUCUUCGGAUGCAGAGGAGGCAGGCUUCGGUGGCGCGAUAGCGCCAACGUCCUCAACCUCCAAUGCAUCCCACCACAUGAUGAUGCCUGAAGAGCCUUGGUUUUUUG
# Variants of: B1
# Experiment: polymerase ribozyme fitness, log enrichment relative to wild type (log ratio); higher = more active; in vitro selection for triplet polymerase activity
# In short: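 After PCR construction and transcription, each subunit's mutant library from a heterodimeric triplet polymerase ribozyme was annealed with a biotinylated primer, the partner subunit and triplets. Incubation was frozen, at −7 °C, and extended constructs were gel-excised, bound to streptavidin beads and amplified by RT-PCR, in one selection round done in triplicate. Fitness is the logarithm of a genotype's enrichment divided by that of the wild type, from inverse-variance-weighted replicate averages of Illumina-sequenced inputs and outputs. The base of the logarithm is 2, and genotypes needed ≥10 input reads and ≥1 read per output.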
row,Variant,polymerase ribozyme fitness (log ratio)
1,C4G C11A G71A C89U A111U U112A C123A G127C,-2.11
2,A5C C73A C123G,1.28
3,A5C U54C C82G C104A U131C,-1.29
4,C4U A18C,-3.99
5,C4U G58A C124U,0.263
6,A5C G60U G128A,-2.44
7,C4U G17U G60U C89A,-4.98
8,A5C G63C A75C C94A G113C G122U,-4.55
9,C4U C20A,-2.6
10,C4G U59A G71U C82A,-5.53
11,C4U U7A G69A,-2.49
12,C4U G113U C124U,-4.72
13,C4U C49U U55G U96A,-2.11
14,A5C C49U C53A C73U,-0.789
15,C4U A37U G48U C73G C98A U106G U112A,-5.16
16,A5C C8G C12U C72U C94A,-1.48
17,C4U A29C G48U C56G A119G,-3.08
18,C4U C11A G44C C82G A121C G127A,-0.143
19,C4U U32A G47A U112G,-5.29
20,C4U C49A G60C C80A C115A,-5.4
21,C4U G71A,-0.833
22,A5C G77A,-0.654
23,A5C A27U C73U C123U G128A,-3.34
24,A5C C8G C11A A37U C123U,0.423

row,Variant,polymerase ribozyme fitness (log ratio)
1,C4U C11G C101U,-0.238
2,A5C G71C C89U G117U U131C,-5.27
3,C4U C12U A16G C40A G57U,-2.2
4,A5C C82U A84G U112A,-1.06
5,C4U U32A C89A U106C G110A,-5.64
6,C4U C56G A111U,-2.42
7,C4U G69U C72G C124G,0.464
8,C4G C101U,-2.36
9,C4G C12G G36C G44C C97G,-2.86
10,C4G C8G,-0.396
11,A5C G120A,0.639
12,A5C G120C,0.663
13,A5C C11G C85G,-1.61
14,C4U G10A G52U U81G C123G U125A,-4.99
15,C4U C8G C53U,0.711
16,A5C G60U,-1.18
17,C4U U96A U106A G122A,-0.892
18,A5C U9A C40U G63U G135U,-2.96
19,C4U C22G G48A C89A C124A,-3.16
20,C4U G52U G61C C124G U131G,-0.648
21,C4G G47A C79A A90G G120A,-3.84
22,A5C C73G C86G C99U G110A U112G,-7.21
23,C4G U78C U112G,-1.83
24,C4U A5U U59G C64U,-3.75

row,Variant,polymerase ribozyme fitness (log ratio)
1,C4G G44U U78G U96G U106C,-4.97
2,A5C U92A C101U C115A U133G,-4.61
3,A5C G45U,-1.36
4,A5C G10A U92G,-3.52
5,C4U A68G,-3.11
6,A5C A91U,-2.68
7,A5C U109A,-4.8
8,A5C A50C A74U U96G,-3.17
9,A5C C12U C73A C99U,-4.28
10,C4U C115A,-1.18
11,A5C C13A C70U U87A,-3.43
12,C4U C12A A66C C70A,-5.72
13,C4G G10U C20G G69A C114U,-6.96
14,C4U A27U,-2.79
15,C4U G117A,-2.18
16,A5C C72A C88A,-1.74
17,C4G C13A G60A A66G C85A A121C,-2.37
18,C4U C12U C13U C124G,1.84
19,A5C G69C,-1.74
20,A5C G69A,-3.11
21,C4G G61A U78A A83G C124U U125G,-1.07
22,C4U U9G G35A G47U G48U G63A C104U G113U,-6.85
23,C4G C20U C94U A111U,-5.59
24,A5C C12A C72U G113C,-3.72

row,Variant,polymerase ribozyme fitness (log ratio)
1,C4G C11A A16G A37U G69A G77C G113U C124U,-4.9
2,A5C A83G U106A C123U G135A,-1.09
3,A5C U32C C53U G57A C85A,-3.78
4,A5C A16C G44C,-4.17
5,A5C A41U,-2.41
6,C4G C73U C101A U129A,-1.48
7,A5C A29G C49G C70A U92C G117U,-7.38
8,C4U C8G C13A U21G C70U G120C U132C,-0.598
9,A5C G113A,-1.96
10,A5C G113U,-3.73
11,C4U G63C C76A A91C A100C C115G C123A,-4.89
12,A5C G44C A46U U106C,-2.77
13,A5C A29U A121G,-0.781
14,C4U A74U,-1.1
15,C4G C8G A50U G113C C115U,-5.07
16,C4U A6U A91U G113U,-3.89
17,A5C C11G A41C G71C C104U,-2.45
18,A5C C15U G60C U96A,-2.98
19,C4U A26G C28U C40A C64A C123U,-6.51
20,A5C U55C G120U C123G U131A,0.062
21,C4U G48C G69C C101G,-4.61
22,A5C C8U C62U,-0.266
23,C4U C12U,0.148
24,C4U A50C A74U C79G G117A,-4.91

row,Variant,polymerase ribozyme fitness (log ratio)
1,A5C U9G C80U A90U U92A,-2.94
2,C4G C123A,-0.461
3,A5C C15A C64U U81C C88U,-3.57
4,A5C C82A C101G,-3.77
5,C4U U38A G45U C49G G71A,-4.53
6,C4U C53U C64U A84G,-1.67
7,C4G C13A A24C G63A G71C G113U G128C,-6.72
8,C4G C115U,-2.19
9,C4U C20U U59G C89G U112A U125A U131C,-2.82
10,A5C C15A,-1.17
11,C4U C8A C123G,0.914
12,A5C C13A C34A A83U A108G C124A,-5.47
13,C4U U7A G93C C102A,-3.52
14,C4G G110C,-5.58
15,A5C C62U C115A,-1.14
16,C4U C72G,-0.855
17,C4U C72U,-0.857
18,A5C C20A A37G A84U A90C U109G,-4.05
19,C4G U112G,-0.359
20,A5C G10A C34A G63U,-4.64
21,C4U G36A C70A G71A A90G U112G,-6.28
22,C4U C82U,-0.905
23,A5C U87C C88A G120U,-0.6
24,C4U C49U C97U G128U,-2.93

row,Variant,polymerase ribozyme fitness (log ratio)
1,C4U G45U C124A,0.121
2,A5C,-0.52
3,C4U G71U C97U C123A,0.307
4,C4U A37G,-0.871
5,C4G G17U C53U C56A,-3.68
6,C4U A6C C13U G48U C49G C53U G113C,-3.03
7,C4G U7C G69U,-0.0887
8,C4U U7G C22G U55G A91C C124A,-3.16
9,A5C G39A G69A G120C,-4.21
10,C4G G77A C86U C97U,-3.31
11,C4U C102U C124U,-0.637
12,C4U C11A C76U C82G G110U,-5.02
13,A5C C11G U87G C89A G120C,-0.971
14,A5C U9C G61C,-1.78
15,C4G G57C C64U A83G C85U,-3.12
16,A5C C97G U112A G122U,-5.96
17,C4G C8G G44A U131G,-3.14
18,C4G U59C G65A C85U G110C,-5.92
19,A5C A90U,-2.01
20,C4U C34G,-5.92
21,C4G C8G A37U G45A U131G,-2.92
22,A5C C13U C70U A84C U131A,-1.24
23,C4U A41C A111U A119C,-6.22
24,C4U C8A C53U G69U U96G G128C,-1.46

row,Variant,polymerase ribozyme fitness (log ratio)
1,C4G G36U A90C C124U,-3.18
2,C4U A50G C62U G110A,-1.24
3,C4G G63A,-2.73
4,C4U C62U A91U G120A,-2.44
5,C4U A18G G58A G69U,-2.44
6,C4U C56A C86U,-1.22
7,A5C C11A U54A C104U,-0.94
8,A5C C86U,-0.23
9,C4U U9C C82U,0.225
10,C4U C72U G117C,-4.14
11,A5C A75G U130G U133A,-0.35
12,C4U C73G A118G,-1.58
13,C4U C64A C124U,-5.08
14,C4U G17A,-2.72
15,C4U U87C,-0.694
16,A5C C64A U112C,-6.42
17,C4U C15U G57U A100C,-4.18
18,C4U U21A C115G,-4.19
19,C4G C62A C99A G113U,-6.39
20,C4U G48A G52A U92A,-5.54
21,A5C C13A C94A U112G,-2.97
22,A5C U87G U96G C104U A121C,0.96
23,A5C C15A C62G A100U G117U,-4.14
